In the supplement of paper PMC10724198:
± gives the standard deviation of the averaged measurements.

Columns and labels:
[1] = test system: Saccharomyces cerevisiae; test: protein stability index of tFT-peptide fusion (C-terminal peptide) (PSI (0-1 scale)); higher = more stable (slower turnover); conditions: genetic background: wild type; temperature: 30 C
[2] = test system: Saccharomyces cerevisiae; test: as above
Protocol: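 MPS profiling in S. cerevisiae of the tFT-X12 degron library: putative degron peptides plus stable controls, 12 aa, fused to the C-terminus of a sfGFP-mCherry timer. Cells are FACS-sorted into 8 mCherry/sfGFP bins and deep-sequenced. PSI runs from 0 (unstable) to 1 (stable). Backgrounds are wild type, das1Δ and doa10Δ at 30 °C, and wild type, das1Δ, cdc34-1 and cdc53-1 at 37 °C; 2-3 technical replicates each.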

[3] = genetic background: cdc34-1, temperature: 37 C
[4] = genetic background: cdc53-1, temperature: 37 C
[5] = genetic background: das1 deletion, temperature: 30 C
[6] = genetic background: das1 deletion, temperature: 37 C
[7] = genetic background: doa10 deletion, temperature: 30 C
[8] = genetic background: wild type, temperature: 30 C
[9] = genetic background: wild type, temperature: 37 C
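Also: PSI is a weighted mean of sequencing reads over stability bins, variants kept only with over 10 reads, mCherry proximal and sfGFP distal, peptide attached via GGGS linker.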

Row | Sequence | protein stability index [1] | protein stability index [2, 3] | protein stability index [2, 4] | protein stability index [2, 5] | protein stability index [2, 6] | protein stability index [2, 7] | protein stability index [2, 8] | protein stability index [2, 9]
1 | SCFRFFFLFLFF | 0.322 ± 0.052 | 0.192 ± 0.011 | 0.197 ± 0.0042 | 0.282 ± 0.024 | 0.361 ± 0.016 | 0.4322 ± 0.00071 | 0.238 ± 0.043 | 0.312 ± 0.0097
2 | SCFRSLAVYFLC | 0.155 ± 0.032 | 0.333 ± 0.025 | 0.624 ± 0.02 | 0.603 ± 0.033 | 0.678 ± 0.01 | 0.0706 ± 0.0018 | 0.07 ± 0.015 | 0.0763 ± 0.0025
3 | SCLVLDYCFSLV | 0.442 ± 0.016 | 0.649 ± 0.037 | 0.631 ± 0.012 | 0.419 ± 0.029 | 0.643 ± 0.0034 | 0.446 ± 0.019 | 0.435 ± 0.02 | 0.613 ± 0.0062
4 | SCYDYVILLQLS | 0.304 ± 0.026 | 0.506 ± 0.051 | 0.65547 ± 0.00031 | 0.435 ± 0.04 | 0.619 ± 0.025 | 0.178 ± 0.01 | 0.213 ± 0.042 | 0.393 ± 0.0047
5 | SFFFTLLICFLF | 0.253 ± 0.011 | 0.161 ± 0.017 | 0.107 ± 0.0062 | 0.234 ± 0.0085 | 0.312 ± 0.0082 | 0.26 ± 0.021 | 0.166 ± 0.028 | 0.244 ± 0.018
6 | SFLLGCCWLVLC | 0.155 ± 0.0099 | 0.222 ± 0.04 | 0.309 ± 0.0045 | 0.27 ± 0.03 | 0.3934 ± 0.0034 | 0.1353 ± 0.00058 | 0.116 ± 0.0073 | 0.127 ± 0.0028
7 | SFLLVWCLLPEI | 0.415 ± 0.0064 | 0.364 ± 0.056 | 0.479 ± 0.096 | 0.309 ± 0.029 | 0.4729 ± 0.0046 | 0.2695 ± 0.0018 | 0.299 ± 0.035 | 0.451 ± 0.033
8 | SFLVFLYFFMVF | 0.379 ± 0.013 | 0.3637 ± 0.0027 | 0.429 ± 0.058 | 0.335 ± 0.038 | 0.449 ± 0.02 | 0.316 ± 0.016 | 0.303 ± 0.034 | 0.446 ± 0.031
9 | SGWGGGTWVKMG | 0.3093 ± 0.0025 | 0.537 ± 0.019 | 0.721 ± 0.046 | 0.662 ± 0.024 | 0.76 ± 0.011 | 0.113 ± 0.013 | 0.12 ± 0.013 | 0.191 ± 0.018
